Assay [1] deals with FOXO3a (human) (UniProt O43524). Nature of the assay: cell-based or functional assay.
The target of assay [2] is FOXO3a-TM (human) (UniProt O43524). Nature of the assay: cell-based or functional assay.

human Smek1 (from UniProt Q6IN85 1-833) gave a synthetic FOXO luciferase reporter (three tandem IRS elements), HepG2 cells (percent increase) in assay [1] of 50. In assay [2], the synthetic FOXO luciferase reporter (three tandem IRS elements), 293 cells is 12 fold and the synthetic FOXO luciferase reporter (three tandem IRS elements), HepG2 cells amounted to 2 fold.
